{
  "source": "paper PMC5300761",
  "key": {"[1]": {"target": "CRD-BP WT (mouse) (UniProt O88477)", "sequence (O88477 whole entry)": "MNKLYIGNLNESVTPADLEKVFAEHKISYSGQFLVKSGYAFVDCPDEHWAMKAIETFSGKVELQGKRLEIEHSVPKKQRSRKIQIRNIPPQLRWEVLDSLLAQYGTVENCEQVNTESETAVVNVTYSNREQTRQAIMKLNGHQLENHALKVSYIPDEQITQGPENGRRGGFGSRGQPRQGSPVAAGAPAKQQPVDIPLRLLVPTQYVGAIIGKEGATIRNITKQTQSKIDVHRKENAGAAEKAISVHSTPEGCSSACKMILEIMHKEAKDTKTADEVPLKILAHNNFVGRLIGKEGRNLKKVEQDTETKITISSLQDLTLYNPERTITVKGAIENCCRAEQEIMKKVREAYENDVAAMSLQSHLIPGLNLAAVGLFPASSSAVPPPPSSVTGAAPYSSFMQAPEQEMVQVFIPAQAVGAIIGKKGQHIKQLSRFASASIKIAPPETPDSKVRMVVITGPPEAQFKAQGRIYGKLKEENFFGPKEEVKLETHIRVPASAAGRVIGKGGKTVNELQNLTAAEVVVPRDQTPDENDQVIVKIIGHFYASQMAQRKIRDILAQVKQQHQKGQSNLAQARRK", "test": "EMSA", "conditions": "EMSA as in refs 21,22 (buffer not given; competitor preincubation 35 C), FP: binding buffer stock 10 mM Tris-HCl pH 7.4, 2.5 mM EDTA, 5% glycerol, 0.002% …"}, "[2]": {"target": "CRD-BP D526E D526E (mouse) (UniProt O88477)", "sequence (O88477 whole entry D526E)": "as the sequence (O88477 whole entry) above, with D526E counted along it", "test": "EMSA", "conditions": "EMSA as in refs 21,22 (buffer not given; competitor preincubation 35 C); FP: binding buffer stock 10 mM Tris-HCl pH 7.4, 2.5 mM EDTA, 5% glycerol, 0.002% …"}, "[3]": {"target": "CRD-BP KH1 G212D (mouse) (UniProt O88477)", "sequence (O88477 whole entry G212D)": "as the sequence (O88477 whole entry) above, with G212D counted along it", "test": "EMSA", "conditions": "EMSA as in refs 21,22 (buffer not given; competitor preincubation 35 C); FP: binding buffer stock 10 mM Tris-HCl pH 7.4, 2.5 mM EDTA, 5% glycerol, 0.002% …"}, "[4]": {"target": "CRD-BP KH2 G293D (mouse) (UniProt O88477)", "sequence (O88477 whole entry G293D)": "as the sequence (O88477 whole entry) above, with G293D counted along it", "test": "EMSA", "conditions": "EMSA as in refs 21,22 (buffer not given; competitor preincubation 35 C); FP: binding buffer stock 10 mM Tris-HCl pH 7.4, 2.5 mM EDTA, 5% glycerol, 0.002% …"}, "[5]": {"target": "CRD-BP KH3 G422D (mouse) (UniProt O88477)", "sequence (O88477 whole entry G422D)": "as the sequence (O88477 whole entry) above, with G422D counted along it", "test": "EMSA", "conditions": "EMSA as in refs 21,22 (buffer not given; competitor preincubation 35 C); FP: binding buffer stock 10 mM Tris-HCl pH 7.4, 2.5 mM EDTA, 5% glycerol, 0.002% …"}, "[6]": {"target": "CRD-BP KH3-4 G422D;G504D (mouse) (UniProt O88477)", "sequence (O88477 whole entry G422D/G504D)": "as the sequence (O88477 whole entry) above, with G422D, G504D counted along it", "test": "EMSA", "conditions": "EMSA as in refs 21,22 (buffer not given; competitor preincubation 35 C); FP: binding buffer stock 10 mM Tris-HCl pH 7.4, 2.5 mM EDTA, 5% glycerol, 0.002% …"}, "[7]": {"target": "CRD-BP KH4 G504D (mouse) (UniProt O88477)", "sequence (O88477 whole entry G504D)": "as the sequence (O88477 whole entry) above, with G504D counted along it", "test": "EMSA", "conditions": "EMSA as in refs 21,22 (buffer not given; competitor preincubation 35 C); FP: binding buffer stock 10 mM Tris-HCl pH 7.4, 2.5 mM EDTA, 5% glycerol, 0.002% …"}, "[8]": {"target": "CRD-BP Y5A Y5A (mouse) (UniProt O88477)", "sequence (O88477 other isoform, or with tags, fused parts or gaps)": "as the sequence (O88477 whole entry) above, with Y5A counted along it", "test": "EMSA", "conditions": "EMSA as in refs 21,22 (buffer not given; competitor preincubation 35 C); FP: binding buffer stock 10 mM Tris-HCl pH 7.4, 2.5 mM EDTA, 5% glycerol, 0.002% …"}, "[9]": {"target": "CRD-BP WT (mouse) (UniProt O88477)", "test": "competition", "conditions": "EMSA as in refs 21,22 (buffer not given; competitor preincubation 35 C); FP: binding buffer stock 10 mM Tris-HCl pH 7.4, 2.5 mM EDTA, 5% glycerol, 0.002% …"}, "[10]": {"tested_on": "CRD-BP D526E (mouse)", "test": "EMSA", "conditions": "EMSA as in refs 21,22 (buffer not given; competitor preincubation 35 C); FP: binding buffer stock 10 mM Tris-HCl pH 7.4, 2.5 mM EDTA, 5% glycerol, 0.002% …"}, "[11]": {"tested_on": "CRD-BP KH3-4 (mouse)", "test": "EMSA", "conditions": "EMSA as in refs 21,22 (buffer not given; competitor preincubation 35 C); FP: binding buffer stock 10 mM Tris-HCl pH 7.4, 2.5 mM EDTA, 5% glycerol, 0.002% …"}, "[12]": {"tested_on": "CRD-BP Y5A (mouse)", "test": "EMSA", "conditions": "EMSA as in refs 21,22 (buffer not given; competitor preincubation 35 C); FP: binding buffer stock 10 mM Tris-HCl pH 7.4, 2.5 mM EDTA, 5% glycerol, 0.002% …"}},
  "note": "“And” between values parts separate entries of the source, which are not always exact repeats. Identical values can stand only once.",
  "data": [
    {"substance": "GGACACUUGUUAGCGAAUCCUCCCUGCACUGCAUUCGCACAAACUGCUUCCUUUCUUGAUUCGUAGAUUUAAUAACUUACCUGAAGGGGUUUUCUUGAUAAUUUUCCUUUAAUAUGAAAUUUUUUUUCAUGCUUUAUCAAUAGCCCAGGAUAUAUUUUAUUUUUAGAAUUUUGUGAAACAGACUUGUAUAUUCUAUUUUACAACUACAAAUGCCUCCAAAGUA [MITF RNA 1330-1550]", "values": [
      {"measurement": "binding", "setting": "[1]", "result": "binds more weakly"}
    ]},
    {"substance": "GGAUUGUACAAAUAAGUGUGCAGUAUCUGUGAACUGAAUUCACCACAGACUUUAGCUUUCUGAGCAAGAGGA [MITF RNA 1550-1619]", "values": [
      {"measurement": "binding", "setting": "[1]", "result": "no binding"}
    ]},
    {"substance": "GGAUUGUACAAAUAAGUGUGCAGUAUCUGUGAACUGAAUUCACCACAGACUUUAGCUUUCUGAGCAAGAGGAUUUUGCGUCAGAGAAAUGUCUGUCCAUUUUUAUUCAGGGGAAACUUGAUU [MITF RNA 1550-1669]", "values": [
      {"measurement": "binding", "setting": "[1]", "result": "binds"}
    ]},
    {"substance": "GGAUUGUACAAAUAAGUGUGCAGUAUCUGUGAACUGAAUUCACCACAGACUUUAGCUUUCUGAGCAAGAGGAUUUUGCGUCAGAGAAAUGUCUGUCCAUUUUUAUUCAGGGGAAACUUGAUUUGAGAUUUUUAUGCCUGUGACUUCCUUGGAAAUCAAA [MITF RNA 1550-1709]", "values": [
      {"measurement": "binding", "setting": "[1]", "result": "binds"}
    ]},
    {"substance": "GGAUUGUACAAAUAAGUGUGCAGUAUCUGUGAACUGAAUUCACCACAGACUUUAGCUUUCUGAGCAAGAGGAUUUUGCGUCAGAGAAAUGUCUGUCCAUUUUUAUUCAGGGGAAACUUGAUUUGAGAUUUUUAUGCCUGUGACUUCCUUGGAAAUCAAAUGUAAAGUUUAAUUGAAAGAAUGUAAAGCAACCA [MITF RNA 1550-1740]", "values": [
      {"measurement": "Kd", "setting": "[2]", "result": 91, "unit": "nM"},
      {"measurement": "binding", "setting": "[3]", "result": "binds"},
      {"measurement": "binding", "setting": "[4]", "result": "no binding"},
      {"measurement": "binding", "setting": "[5]", "result": "no binding"},
      {"measurement": "Kd", "setting": "[6]", "result": 155, "unit": "nM"},
      {"measurement": "binding", "setting": "[7]", "result": "no binding"},
      {"measurement": "Kd", "setting": "[1]", "result": "323 nM and 132 nM"},
      {"measurement": "binding", "setting": "[1]", "result": "binds"},
      {"measurement": "Kd", "setting": "[8]", "result": 85, "unit": "nM"},
      {"measurement": "binding", "setting": "[9]", "result": "binds"}
    ]},
    {"substance": "GGCUGAAUUCACCACAGACUUUAGCUUUCUGAGCAAGAGGAUUUUGCGUCAGAGAAAUGUCUGUCCAUUUUUAUUCAGGGGAAACUUGAUUUGAGAUUUUUAUGCCUGUGACUUCCUUGGAAAUCAAAUGUAAAGUUUAAUUGAAAGAAUGUAAAGCAACCA [MITF RNA 1581-1740]", "values": [
      {"measurement": "binding", "setting": "[1]", "result": "binds"}
    ]},
    {"substance": "GGUUUGCGUCAGAGAAAUGUCUGUCCAUUUUUAUUCAGGGGAAACUUGAUUUGAGAUUUUUAUGCCUGUGACUUCCUUGGAAAUCAAAUGUAAAGUUUAAUUGAAAGAAUGUAAAGCAACCA [MITF RNA 1621-1740]", "values": [
      {"measurement": "binding", "setting": "[1]", "result": "binds"}
    ]},
    {"substance": "MITF RNA 1550-1740", "values": [
      {"measurement": "Kd", "setting": "[10]", "result": 91, "unit": "nM"},
      {"measurement": "Kd", "setting": "[11]", "result": 155, "unit": "nM"},
      {"measurement": "Kd", "setting": "[1]; 40 nM RNA, compared with deletion RNA", "result": 323, "unit": "nM"},
      {"measurement": "Kd", "setting": "[1]", "result": 132, "unit": "nM"},
      {"measurement": "Kd", "setting": "[12]", "result": 85, "unit": "nM"}
    ]},
    {"substance": "MITF RNA 1550-1740 (del1621-1669)", "values": [
      {"measurement": "Kd", "setting": "[1]; 40 nM RNA", "result": 970, "unit": "nM"}
    ]}
  ]
}
